Experimental data taken from publication PMC12518824 (Nature Communications, 2025).
One block for each binder: values may come before it.

Tests used:
[1] = target: T1, Munc13-4 (full-length human, recombinant) (human, UniProt Q70J99 1-1090); experiment: pull-down
T1 sequence (looked up): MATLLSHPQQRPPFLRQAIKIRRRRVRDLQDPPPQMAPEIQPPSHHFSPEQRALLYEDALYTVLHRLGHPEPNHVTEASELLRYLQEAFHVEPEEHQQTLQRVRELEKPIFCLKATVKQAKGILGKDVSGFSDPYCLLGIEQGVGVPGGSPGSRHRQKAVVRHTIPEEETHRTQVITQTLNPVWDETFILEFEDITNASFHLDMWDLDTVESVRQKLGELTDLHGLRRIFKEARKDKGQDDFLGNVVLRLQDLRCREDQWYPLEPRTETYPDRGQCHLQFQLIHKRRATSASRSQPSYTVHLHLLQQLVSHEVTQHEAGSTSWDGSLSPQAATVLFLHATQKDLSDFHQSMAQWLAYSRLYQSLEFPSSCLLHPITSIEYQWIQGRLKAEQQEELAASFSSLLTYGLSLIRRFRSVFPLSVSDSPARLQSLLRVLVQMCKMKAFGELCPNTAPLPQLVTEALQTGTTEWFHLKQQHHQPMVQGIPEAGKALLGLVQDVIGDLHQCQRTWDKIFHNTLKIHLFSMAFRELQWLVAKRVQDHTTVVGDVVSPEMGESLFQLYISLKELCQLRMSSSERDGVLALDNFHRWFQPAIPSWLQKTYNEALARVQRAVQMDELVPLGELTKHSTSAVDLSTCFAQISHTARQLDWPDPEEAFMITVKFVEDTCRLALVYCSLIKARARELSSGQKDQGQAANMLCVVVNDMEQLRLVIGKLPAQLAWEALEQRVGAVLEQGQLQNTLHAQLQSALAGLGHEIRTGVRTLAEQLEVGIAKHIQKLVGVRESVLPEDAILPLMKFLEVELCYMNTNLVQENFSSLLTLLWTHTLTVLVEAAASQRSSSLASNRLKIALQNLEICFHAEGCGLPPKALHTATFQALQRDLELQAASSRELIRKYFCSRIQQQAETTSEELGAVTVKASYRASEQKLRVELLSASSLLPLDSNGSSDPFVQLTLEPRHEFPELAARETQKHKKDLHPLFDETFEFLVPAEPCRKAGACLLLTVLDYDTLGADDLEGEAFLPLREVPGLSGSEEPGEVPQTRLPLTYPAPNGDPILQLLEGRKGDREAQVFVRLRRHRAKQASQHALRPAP

[2] = target: T2, syntaxin-4 ΔTM (residues 1–275) (human, UniProt Q12846 1-275); experiment: FRET or BRET
T2 sequence (looked up): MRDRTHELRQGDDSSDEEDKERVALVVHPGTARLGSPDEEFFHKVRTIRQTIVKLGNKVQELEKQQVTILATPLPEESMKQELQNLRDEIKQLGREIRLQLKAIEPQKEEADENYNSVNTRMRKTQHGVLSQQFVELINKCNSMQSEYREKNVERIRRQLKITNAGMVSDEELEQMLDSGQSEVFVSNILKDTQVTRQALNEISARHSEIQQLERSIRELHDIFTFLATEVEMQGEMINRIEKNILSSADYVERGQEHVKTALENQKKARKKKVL

binding result [1]: binds
B1: GST-Rab27a (full-length) (natural protein, human, UniProt P51159 1-221, looked up)
chain: MSDGDYDYLIKFLALGDSGVGKTSVLYQYTDGKFNSKFITTVGIDFREKRVVYRASGPDGATGRGQRIHLQLWDTAGQERFRSLTTAFFRDAMGFLLLFDLTNEQSFLNVRNWISQLQMHAYCENPDIVLCGNKSDLEDQRVVKEEEAIALAEKYGIPYFETSAANGTNISQAIEMLLDLIMKRMERCVDKSWIPEGVVRSNGHASTDQLSEEKEKGACGC

binding result [1]: binds
B2: GST-VAMP-7 SNARE motif (residues 123–187) (domain or fragment, human, UniProt P51809 123-187, looked up)
chain: LDKVMETQAQVDELKGIMVRNIDLVAQRGERLELLIDKTENLVDSSVTFKTTSRNLARAMCMKNL

binding result [2]: binds
B3: VAMP-7 SNARE motif (residues 123–187, A131C) labeled with BODIPY FL (domain or fragment, human, UniProt P51809 123-187, looked up)
chain: LDKVMETQC(BODIPY FL)QVDELKGIMVRNIDLVAQRGERLELLIDKTENLVDSSVTFKTTSRNLARAMCMKNL
